These results are taken from paper PMC3870462 (Chemistry & biology, 2013).

Read-outs that look alike come from different tables or passages of the source.

Series [1] deals with Avitag-CurG ACP-dd (Moorea producens). The series can be described thus: BLI. (In BLI a coated tip is dipped into the sample, and binding shifts an interference pattern.)
The target in series [2] is CurG ACP-dd (Moorea producens). The series can be described thus: fluorescence polarisation.
For series [3], the target named is CurK ACP-dd (Moorea producens). The series can be described thus: fluorescence polarisation.
The target in series [4] is CurK ACP-dd E2224R (Moorea producens). The series can be described thus: fluorescence polarisation. On the technique in general: In fluorescence polarisation assays a small probe gives low polarisation when free and higher when bound to something large.
Series [5] shares this target. The series can be described thus: fluorescence polarisation. The source holds these as a separate data set.
Series [6] concerns the target CurH ACP-dd (Moorea producens). The series can be described thus: fluorescence polarisation.
Series [7] deals with CurI dd-KS-AT dimer (Moorea producens). In words: SEC. (SEC sorts molecules by how far they enter the pores of the column.)
The target in series [8] is CurK-CurL ^ACPddK-G3SG3S-ddL^KS (Moorea producens).
Series [9] has as its target CurL dd^KS (Moorea producens). In words: crystal structure.
Series [10] has as its target CurL ACP-dd (Moorea producens). The series can be described thus: fluorescence polarisation.
The target in series [11] is PikAIIID-^ACPddG (not stated | Moorea producens).
The series “crystal structure” deals with the molecule itself. In words: crystal structure.
Series [12] deals with the molecule itself.

One may read the Kd as the constant that tells how readily two partners part at equilibrium. As for CurH dd-KS-AT (domain or fragment), the Kd is 16.5 µM in series [1]; 15.7 µM in series [2]; 23.7 µM in series [3]; 9.2 µM in [4]; 10 µM in series [5]. Molecule “CurH dd-KS-AT lacking helix αA and the dd^KS loop (domain or fragment)” displayed a Kd in series [2] of 117 µM. For the molecule CurI dd-KS-AT (domain or fragment), the Kd in series [6] was 20.5 µM. The term stoichiometry N denotes the number of molecules, sites or subunits per partner or assembly. On to “CurI dd-KS-AT dimer (domain or fragment)”, for which the stoichiometry N in series [7] was 2. The Kd in [6] is 9.4 µM. In [8], CurK-CurL ^ACPddK-G3SG3S-ddL^KS returned a stoichiometry N of 2. CurL dd^KS (domain or fragment) had a stoichiometry N in [9] of 2. As to CurM dd-KS-AT (domain or fragment), the figures for the Kd in series [3] and in series [10] were 52 µM and 5.4 µM, respectively. Regarding ddH^KS-PikAIV (enzyme), in series [11], the 10-deoxymethynolide (10-dml) produced, percent of wild type PikAIII/PikAIV stood at 188%; the narbonolide (nbl) produced, percent of wild type PikAIII/PikAIV was determined as 70%; the pentaketide substrate consumed in the PikAIII/PikAIV two-module reaction stood at 86%.

B1: CurL dd-KS-AT (domain or fragment, Moorea producens)
chain: MNLKQEQEKEQSLSALQRALIALKDARSKLEKYETQSKEPIAIIGMSCRFPGGVDSPESFWQLLNDGVDAISEVPSNRWNINNYYDPDPDATGKISTRDGGFLSQIDGFDAPFFCISPREVQSLDPQQRLLLEVSWEAIERANIVPDQLFNSLTGVFIGIGSSDYLNQLATSEVPQAYWGTGNAPSAATGRLSYILGLTGPNLAVETACSSSLVSLHLACQSLRQQECNLALAGGVNLLLSPETSIIFSQAKMLSPDGRCKTFDASANGYVRGEGCGVIVLKRLSDAVANGDNVLAVIRGTAINQDGASGGLTVPNGPSQVAVIRKALSNGGVDPASVSYIEAHGTGTSLGDPIEVGAIGTVFGKTHSQEQPLIVGTAKTNIGHLEVAAGIAGLMKVVLQLQHQQIAPSLHFKQPNPYINWSQLPVQVSTQLTPWQTNGKSRIAGVSSFGFSGTNAHVVIEEAPKEGNSLSATVEENGNSTVKEDTLERAVYLLTLSAKTQAALDDLVNSYQNYLKNYPELRIADICYTANTCRSHFNNRLAVVASNQQELVEKLRQHQQGEEVTGIYSIELPNNSTAPKIALLFTGQGSQYVNMGRQLYQQAPVFRKALEQCNEILLGTETFREKSLLEILYPANQEQSNSSLLDQTAYTQPCLFALEYALFKLWQSWGIQPDVVMGHSVGEYVAATVAGVFSLEEGLKLIAARGRLMQQLPAGGEMVSVIASESKVLEIFKAMSLEEKVAIAAINGPESTVISGEAEAVGAIATHLESLSIKTKQLQVSHAFHSRLMEPMLAEFEAVAKQVTYSQPQISLISNVTGQQVGSEITSAEYWVNHVRQPVRFSESMTTLHQEGYELFLEIGPKPILLGMGRQCLPEGVGVWLPSLRPGVEAWQQMLQSLGQLYMKGIKVNWSGFDQDYACHKVAIPTYPFQRESYWIDT
For B1, in the series “crystal structure”, the “stoichiometry N” value is 2. This molecule came in with a Kd in series [3] of 4.5 µM.

B2: CurG-CurH ^ACPddG-G3SG3S-ddH^KS (other, Moorea producens)
chain: LEAKLLDEIKQSSNQELESSIDQILESIINGGGSGGGSMLNKFTKKEQILSEKQQIKQLSPLQRAALALKKLETKLNNTLHE
Take B2: in series [12], the “stoichiometry N” value was 2.
